Assay results: PMC4142084 (Molecular cell, 2014)
Numbering of substitutions follows the chain as printed.

B1: purified recombinant FLAG-6PGD (6-phosphogluconate dehydrogenase) WT (enzyme, human)
chain: MAQADIALIGLAVMGQNLILNMNDHGFVVCAFNRTVSKVDDFLANEAKGTKVVGAQSLKEMVSKLKKPRRIILLVKAGQAVDDFIEKLVPLLDTGDIIIDGGNSEYRDTTRRCRDLKAKGILFVGSGVSGGEEGARYGPSLMPGGNKEAWPHIKTIFQGIAAKVGTGEPCCDWVGDEGAGHFVKMVHNGIEYGDMQLICEAYHLMKDVLGMAQDEMAQAFEDWNKTELDSFLIEITANILKFQDTDGKHLLPKIRDSAGQKGTGKWTAISALEYGVPVTLIGEAVFARCLSSLKDERIQASKKLKGPQKFQFDGDKKSFLEDIRKALYASKIISYAQGFMLLRQAATEFGWTLNYGGIALMWRGGCIIRSVFLGKIKDAFDRNPELQNLLLDDFFKSAVENCQDSWRRAVSTGVQAGIPMPCFTTALSFYDGYRHEMLPASLIQAQRDYFGAHTYELLAKPGQFIHTNWTGHGGTVSSSSYNA
modifications: background lysine acetylation; acetylation at K76 and K294 increased after incubation with lysates of NAM+TSA-treated H1299 cells
B2: purified recombinant FLAG-6PGD K76R (enzyme, human)
chain: B1 chain with K76R
modifications: acetylation at K294 increased after incubation with lysates of NAM+TSA-treated H1299 cells

Biological target: the molecule itself
Test: cross-linking

Protein | stoichiometry N
B1 | 2
B2 | 2
